In PMC9482650, “Quantitative fragmentomics allow affinity mapping of interactomes” (Nature Communications, 2022):

Experiments:
Test in all cases: holdup assay
Details in all cases: plain residues with an end cap or a label only (N-terminal biotin on a linker: (peg)3)
DVL2, O14641 = target: DVL2, O14641
LIMK1, P53667 = target: LIMK1, P53667
MAGIX, Q9H6Y5 = target: MAGIX, Q9H6Y5
MPDZ_2, O75970 = target: T1, MPDZ_2, O75970
T1 sequence (O75970 252-347, limits assumed, looked up): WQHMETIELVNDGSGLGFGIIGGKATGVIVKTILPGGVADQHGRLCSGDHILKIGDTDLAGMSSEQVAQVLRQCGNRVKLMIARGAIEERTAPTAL

NHERF2_1, Q15599 = target: NHERF2_1, Q15599
PARD3B_2, Q8TEW8 = target: PARD3B_2, Q8TEW8
PARD6G, Q9BYG4 = target: T2, PARD6G, Q9BYG4
T2 sequence (Q9BYG4 153-261, limits assumed, looked up): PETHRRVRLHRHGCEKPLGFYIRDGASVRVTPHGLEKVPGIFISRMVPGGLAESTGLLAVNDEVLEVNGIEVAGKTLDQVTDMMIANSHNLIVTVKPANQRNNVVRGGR

PDZD2_3, O15018 = target: T3, PDZD2_3, O15018
T3 sequence (O15018 581-682, limits assumed, looked up): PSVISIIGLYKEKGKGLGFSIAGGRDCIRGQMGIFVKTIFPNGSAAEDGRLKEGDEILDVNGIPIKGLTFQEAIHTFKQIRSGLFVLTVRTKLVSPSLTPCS

PDZD7_2, Q9H5P4 = target: T4, PDZD7_2, Q9H5P4
T4 sequence (Q9H5P4 205-303, limits assumed, looked up): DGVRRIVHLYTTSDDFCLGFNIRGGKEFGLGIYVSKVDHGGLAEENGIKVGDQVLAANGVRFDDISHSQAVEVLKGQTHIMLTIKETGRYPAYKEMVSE

PDZD8, Q8NEN9 = target: T5, PDZD8, Q8NEN9
T5 sequence (Q8NEN9 361-459, limits assumed, looked up): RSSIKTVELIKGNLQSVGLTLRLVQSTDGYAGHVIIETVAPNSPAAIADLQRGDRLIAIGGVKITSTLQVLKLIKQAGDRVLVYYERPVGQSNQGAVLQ

PDZD9, Q8IXQ8 = target: PDZD9, Q8IXQ8
RGS12, O14924 = target: T6, RGS12, O14924
T6 sequence (O14924 17-108, limits assumed, looked up): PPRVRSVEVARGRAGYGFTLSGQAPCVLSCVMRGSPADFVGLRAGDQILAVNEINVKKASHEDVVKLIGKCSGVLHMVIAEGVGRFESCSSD

RIMS1, Q86UR5 = target: RIMS1, Q86UR5
SCRIB_4, Q14160 = target: SCRIB_4, Q14160
SHANK3, Q9BYB0 = target: T7, SHANK3, Q9BYB0
T7 sequence (Q9BYB0 641-750, limits assumed, looked up): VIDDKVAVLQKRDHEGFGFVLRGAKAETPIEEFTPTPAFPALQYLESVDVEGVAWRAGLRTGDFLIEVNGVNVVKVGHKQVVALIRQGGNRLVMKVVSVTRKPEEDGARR

SHROOM4, Q9ULL8 = target: T8, SHROOM4, Q9ULL8
T8 sequence (Q9ULL8 5-102, limits assumed, looked up): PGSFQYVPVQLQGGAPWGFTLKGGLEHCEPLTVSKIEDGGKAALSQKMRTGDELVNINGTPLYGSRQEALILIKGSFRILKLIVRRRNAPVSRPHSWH

SIPA1L3, O60292 = target: T9, SIPA1L3, O60292
T9 sequence (O60292 961-1052, limits assumed, looked up): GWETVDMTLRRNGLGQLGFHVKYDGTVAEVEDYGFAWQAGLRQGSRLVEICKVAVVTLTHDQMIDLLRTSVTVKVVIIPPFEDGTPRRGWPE

SNTB2, Q13425 = target: T10, SNTB2, Q13425
T10 sequence (Q13425 110-208, limits assumed, looked up): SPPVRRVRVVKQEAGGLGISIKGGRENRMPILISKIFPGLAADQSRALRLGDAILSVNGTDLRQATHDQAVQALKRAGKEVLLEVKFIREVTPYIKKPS

SYNPO2L, Q9H987 = target: T11, SYNPO2L, Q9H987
T11 sequence (Q9H987 1-98, limits assumed, looked up): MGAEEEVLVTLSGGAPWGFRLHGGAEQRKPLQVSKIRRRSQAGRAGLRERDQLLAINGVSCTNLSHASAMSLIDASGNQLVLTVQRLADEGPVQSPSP

TJP3_2, O95049 = target: T12, TJP3_2, O95049
T12 sequence (O95049 190-282, limits assumed, looked up): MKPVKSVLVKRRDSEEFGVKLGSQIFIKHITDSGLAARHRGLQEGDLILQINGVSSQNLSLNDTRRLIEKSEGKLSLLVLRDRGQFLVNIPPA

USH1C_1, Q9Y6N9 = target: T13, USH1C_1, Q9Y6N9
T13 sequence (Q9Y6N9 82-179, limits assumed, looked up): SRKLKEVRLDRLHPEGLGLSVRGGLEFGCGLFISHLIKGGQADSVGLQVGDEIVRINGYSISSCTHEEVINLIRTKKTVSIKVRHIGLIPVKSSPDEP

USH1C_2, Q9Y6N9 = target: T14, USH1C_2, Q9Y6N9
T14 sequence (Q9Y6N9 206-303, limits assumed, looked up): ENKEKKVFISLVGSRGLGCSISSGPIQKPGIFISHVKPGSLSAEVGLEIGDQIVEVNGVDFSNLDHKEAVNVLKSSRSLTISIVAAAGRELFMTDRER

Measured: pKd

Chain of PARD3B_2, Q8TEW8 (Q8TEW8 376-471): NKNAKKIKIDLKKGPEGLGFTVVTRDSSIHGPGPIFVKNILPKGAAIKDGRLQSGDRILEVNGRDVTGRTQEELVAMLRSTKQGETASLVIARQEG
Chain of PDZD9, Q8IXQ8 (Q8IXQ8 23-120): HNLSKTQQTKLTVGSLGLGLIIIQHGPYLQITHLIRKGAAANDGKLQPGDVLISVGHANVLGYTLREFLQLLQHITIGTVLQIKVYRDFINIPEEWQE
Chain of RIMS1, Q86UR5 (Q86UR5 584-692): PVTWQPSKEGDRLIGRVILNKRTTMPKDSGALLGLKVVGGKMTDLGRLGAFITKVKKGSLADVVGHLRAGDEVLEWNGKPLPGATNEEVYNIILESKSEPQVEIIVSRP
Chain of DVL2, O14641 (O14641 260-359): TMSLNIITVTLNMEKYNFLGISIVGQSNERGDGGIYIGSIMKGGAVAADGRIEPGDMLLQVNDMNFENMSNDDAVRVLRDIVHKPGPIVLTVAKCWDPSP
Chain of MAGIX, Q9H6Y5 (Q9H6Y5 118-211): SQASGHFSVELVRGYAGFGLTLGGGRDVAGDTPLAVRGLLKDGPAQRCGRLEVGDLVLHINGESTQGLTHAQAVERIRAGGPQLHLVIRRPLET
Chain of SCRIB_4, Q14160 (Q14160 1095-1204): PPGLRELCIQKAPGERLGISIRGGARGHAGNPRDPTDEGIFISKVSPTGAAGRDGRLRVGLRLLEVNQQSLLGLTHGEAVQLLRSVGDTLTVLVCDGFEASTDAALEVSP
Chain of NHERF2_1, Q15599 (Q15599 9-91): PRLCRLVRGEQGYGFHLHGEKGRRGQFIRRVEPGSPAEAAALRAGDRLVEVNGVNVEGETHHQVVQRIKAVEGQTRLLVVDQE
Chain of LIMK1, P53667 (P53667 155-268): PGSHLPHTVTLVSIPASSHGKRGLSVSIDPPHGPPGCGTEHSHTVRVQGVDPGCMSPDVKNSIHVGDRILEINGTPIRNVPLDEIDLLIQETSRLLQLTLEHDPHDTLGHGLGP

NLNSSEGVPDLLV [SARS-CoV-E, P59637]
below the threshold: all assays above
